Test results as given in US20250051455A1 (Hoffmann-La Roche, published 2025).

Biological target: T1, recombinant soluble human HLA-G β2M MHC class I complex, monomer (human)
T1 construct: His tagged; biotinylated where coated on streptavidin plates, non-biotinylated in SPR; also called HLA-G-0003; wt HLA-G (monomer)
Assay: SPR Biacore T200, antibody captured via anti-Fc, HLA-G monomer as analyte, 25 C
Protocol: Binding kinetics of anti-HLA-G antibodies to human HLA-G, human HLA-G degrafted and human HLA-A2 were investigated by surface plasmon resonance using a BIACORE T200 instrument (GE Healthcare). All experiments were performed at 25° C. using PBS Buffer (pH 7.4+0.05% Tween20) as running buffer and PBS Buffer (+0.1% BSA) as dilution buffer. Anti-human Fc (JIR009-005-098, Jackson) or anti-rat Fc (JIR112-005-071, Jackson) or anti-Mouse Fc (JIR115-005-071, Jackson) antibodies were immobilized on a Series S CM5 Sensor Chip (GE Healthcare) at pH 5.0 by using an amine coupling kit supplied by GE Healthcare. Anti-HLA-G antibodies were captured on the surface leading to a capturing response of 50-200 RU. HLA-G molecules were injected for 180 s at 30 μl/min with concentrations from 2.5 up to 800 nM (2×1:2 and 4×1:3 dilution series) onto the surface (association phase). The dissociation phase was monitored for 300-600 sec by washing with running buffer. The surface was regenerated by injecting H3PO4 (0,85%) for 60+30 seconds for anti-human Fc capturing antibodies, glycine pH1,5 for 60 seconds and glycine pH2,0 for 60 seconds for anti-rat Fc capturing antibodies, H3PO4 (0,85%) for 80+60 seconds for anti-mouse Fc capturing antibodies. Bulk refractive index differences were corrected by subtracting the response obtained from a mock surface. Blank injections were subtracted (double referencing). The derived curves were fitted to a 1:1 Langmuir binding model using the BIAevaluation software.
The above table summarizes the antibody affinities and t½ values against wt and degrafted HLA-G as assessed by Surface plasmon resonance (Biacore) analysis. Binding kinetics of anti-HLA-G antibodies to human HLA-G and human HLA-G degrafted were investigated by surface plasmon resonance using a BIACORE T200 instrument (GE Healthcare). All experiments were performed at 25° C. using PBS Buffer (pH 7.4+0.05% Tween20) as running buffer and PBS Buffer (+0.1% BSA) as dilution buffer. Anti-human Fc (JIR009-005-098, Jackson) or anti-rat Fc (JIR112-005-071, Jackson) or anti-Mouse Fc (JIR115-005-071, Jackson) antibodies were immobilized on a Series S CM5 Sensor Chip (GE Healthcare) at pH 5.0 by using an amine coupling kit supplied by GE Healthcare.

B1: HLA-G-0031-0104 (humanized variant of HLA-G-0031) (antibody, V domains shown)
VH: QVQLVQSGAEVKKPGASVKVSCKASGYTFTDYWVSWVRQAPGQRLEWMGEISPNSGASNFDENFQGRVTITRDTSASTAYMELSSLRSEDTAVYYCTRSSHGSFRWFAYWGQGTLVTVSS
VL: DIQMTQSPSSLSASVGDRVTITCRASSSVSSNHLHWYQQKPGKAPKFLIYSTSQRASGVPSRFSGSGSGTEFTLTISSLQPEDFATYYCQQGSSNPYTFGQGTKLEIK
notes: Humanized variant (VH framework IGHV1-3, VL framework IGKV1-17 with back-mutation R46F, Kabat)
B1 gave a Kd of 24 nM, a koff of 0.002 s⁻¹ and a kon of 83000 M⁻¹ s⁻¹. The “t 1/2” value was 6 min.
